The values below come from USRE50178 (CELLTECH R AND D, dated 2024).

For the assay, the target named is T1, CD3 antigen (human, UniProt P07766 23-207).
T1 construct: whole, on cells; also called OKT3 antigen; antigen in the T-cell receptor-CD3 complex
Description: competition with Fl-OKT3 on HPB-ALL cells, flow cytometry. On the technique in general: A flow cytometer gives signals particle by particle.

B1: OKT3 gL221 / gH341 (JA178), basic grafted product (antibody, human IgG4, V domains shown)
VH: QVQLVESGGGVVQPGRSLRLSCSSSGYTFTRYTMHWVRQAPGKGLEWVAYINPSRGYTNYNQKFKDRFTISRDNSKNTLFLQMDSLRPEDTGVYFCARYYDDHYCLDYWGQGTTLTVSS
VL: DIQMTQSPSSLSASVGDRVTITCSASSSVSYMNWYQQTPGKAPKLLIYDTSKLASGVPSRFSGSGSGTDYTFTISSLQPEDIATYYCQQWSSNPFTFGQGTKLQITR
notes: Human IgG4 and human kappa constant regions; also called minimally grafted OKT3 antibody
Take B1: the binding result is reported as “no binding”.
